{"source": "patent US20210187071A1", "about": "“COMPOSITIONS COMPRISING MDA-7/IL-24 PROTEIN AND METHODS OF USE” (VIRGINIA COMMONWEALTH UNIVERSITY, priority 2017, published 2021)", "molecules": {"B1": {"name": "MDA-7/IL-24 protein: Recombinant His-tagged MDA-7/IL-24 protein purified on Ni-NTA from supernatant of IM-PHFA cells infected with Ad.5-His-mda-7 (protein)", "chain": "QEFHFGPCQVKGVVPQKLWEAFWAVKDTMQAQDNITSARLLQQEVLQNVSDAESCYLVHTLLEFYLKTVFKNYHNRTVEVRTLKSFSTLANNFVLIVSQLQPSQENEMFSIRDSAHRRFLLFRRAFKQLDVEAALTKALGEVDILLTWMQKFYKL"}}, "key": {"[1]": {"test_system": "immortalized normal primary human prostate epithelial cells (RWPE-1)", "experiment": "Colony formation (clonal) assay in RWPE-1 cells", "format": "cell-based", "conditions": "200 cells plated, colonies counted 2 weeks after treatment", "protocol": "(§1) MTT Cell Proliferation and Clonal Assays: Cell proliferation assays were done as described previously (25). Briefly, 2,000 cells were seeded in each well of a 96-well plate and allowed to attach overnight. Cells were treated with complete media in the presence or absence of different concentrations of MDA-7/IL-24 protein. At appropriate time points, cells were further incubated with MTT (3-(4, 5-di methyl thiazol-2-yl)-2, 5 diphenyl tetrazolium bromide) reagents. Finally, DMSO was applied to dissolve the blue salt and the OD was measured at 560 nm (25). For determining long-term effects, colony formation (cloning) assays were performed as described earlier (26). Briefly, 200 cells were plated and allowed to grow in the presence or absence of MDA-7/IL-24 for an additional 15 days. Culture media was replaced with fresh media containing MDA-7/IL-24 protein once a week, two times in total."}, "PC3-ML cells [2]": {"test_system": "PC3-ML cells", "experiment": "MTT cell proliferation assay in PC3-ML cells", "format": "cell-based", "conditions": "PC3-ML cells treated with MDA-7/IL-24 protein", "protocol": "Purification of Recombinant His-MDA-7 Protein: IM-PHFA cells were infected with Ad.5-His-mda-7 using a published protocol (24). Cell supernatant was mixed with Ni-NTA (a nickel-nitrilotriacetic) acid slurry to allow binding of MDA-7/IL-24 to the Ni-NTA beads. Twenty-four hours after incubation, the Ni-NTA beads were collected, washed, and the purified MDA-7/IL-24 protein was eluted in imidazole buffer. The protein was validated by western blotting using anti-MDA-7 antibody (Genhunter Corporation, Nashville, Tenn., USA). Biological activity was checked in PC3-ML cells by MTT assay (25).\nas §1, with “Culture media was replaced with fresh media containing MDA-7/IL-24 protein once a week, two times in total.” left out"}, "PC cells": {"test_system": "PC cells", "experiment": "Colony formation (clonal) assay in PC cell lines", "format": "cell-based", "conditions": "200 cells plated, colonies counted 2 weeks after treatment", "protocol": "as §1"}, "PC3-ML cells [3]": {"test_system": "PC3-ML cells", "conditions": "for bone metastasis (BLI signal / luciferase intensity): MDA-7/IL-24 protein 5 mg/kg tail vein, 6 doses over three weeks, vs untreated control; for survival: MDA-7/IL-24 protein 5 mg/kg, 6 doses; for toxicity in animals: delivered repeatedly systemically in mice", "protocol": "In vivo Metastasis Studies: All animal studies were approved by the Institutional Animal Care and Use Committee (Virginia Commonwealth University). For experimental bone metastasis assays, 6-8-week-old male athymic nude mice (purchased from Harlan, USA) were injected with 1×10^5 PC3-ML cells stably expressing firefly luciferase gene through an intracardiac route. For determining the therapeutic activity of MDA-7/IL-24 protein, mice received an intravenous injection of recombinant protein (5 mg/kg), one day after implantation of cells. Animals were treated with therapeutics for a total of 6 times (2× a week for first 3 weeks). […] Image of the bone region was monitored by a BLI (bioluminescence imaging) method using an IVIS® imaging system (15, 19, 20).\nIn this model, stable luciferase expressing PC3-ML cells were injected in male athymic nude mice through an intracardiac route to produce bone metastases. The expansion, invasion, and migration of PC3-ML cells were monitored by IVIS® imaging (15, 20, 23). […] BLI imaging followed development of metastatic lesions in bone. […] To determine the effect of MDA-7/IL-24 on primary bone marrow in animals, cells from the bone cavity were isolated and treated with His-MDA-7 at different doses in vitro."}, "bone marrow cells": {"test_system": "bone marrow cells", "experiment": "Osteoclast differentiation of bone marrow cells isolated from treated PC3-ML tumor bearing animals (TRAP staining, TRACP assay)", "format": "in vivo, mice", "conditions": "MDA-7/IL-24 protein 5 mg/kg, 6 doses; differentiation induced ex vivo", "protocol": "Osteoclast Formation Assays: Bone marrow cells were induced for osteoclast differentiation using previously described protocols (28). Briefly, bone marrow cells were cultured in minimal essential medium (α-MEM) with 10% fetal bovine serum with MCSF (10 ng/ml) for 24 hrs. They were subsequently treated with RANKL (100 ng/ml) for 5 days. Cultured cells were fixed and stained for TRAP (Tartarate-resistant acid phosphatase). TRAP staining was performed following the specific protocol provided with the kit (Sigma-Aldrich, Inc. St. Louis, Mo., USA). Multinucleated cells, considered as differentiated osteoclasts, were counted manually under bright field microscope. TRACP enzymatic assays were done as per the manufacturer's instructions (R & D, Minneapolis, Minn., USA).\nThis was quantified by counting the number of osteoclasts (FIG. 2D) and also measuring TRACP osteoclastic enzymatic activity (FIG. 2E). These initial results indicated a potential function of MDA-7/IL-24 in regulating osteoclast differentiation.\nSuppression of osteoclast differentiation was also evaluated using an in vivo metastatic model (FIG. 4C). Bone marrow cells were isolated after sacrifice of mice and osteoclast differentiation was induced. […] This was evident by counting osteoclasts (FIG. 4C) and also by measuring TRACP osteoclastic enzymatic activity (FIG. 4D)."}, "p27, GRP78, and Beclin-1": {"test_system": "p27, GRP78, and Beclin-1", "experiment": "Western blotting of downstream MDA-7/IL-24 signaling molecules in PC3-ML cells", "format": "cell-based", "conditions": "western blot, vs untreated control", "source_text": "Western Blotting: Standard protocols were followed for Western blotting assays (24, 27). The primary antibodies used were pAkt, Akt, pGSK3β, GSK3β, NFATc1, cyclin D1 (Cell Signaling Technology, Danvers, Mass., USA) and EF1α (Abeam, Cambridge, United Kingdom). Appropriate secondary antibodies were purchased from Sigma-Aldrich, Inc. St. Louis, Mo., USA).\nAfter purification, the quality of the purified protein was confirmed using anti-MDA-7 antibody by western blotting (FIG. 1B). To confirm biological activity, PC3-ML cells were treated with MDA-7/IL-24 protein, and anti-proliferative and potential molecular changes were evaluated by MTT assays and western blotting analyses, respectively (FIGS. 1C and 1D). […] Next, to evaluate the long-term effect of MDA-7/IL-24 on cell proliferation, colony formation (clonal) assays were performed in an assortment of PC cell lines."}, "[4]": {"test_system": "primary bone marrow cells", "experiment": "Live-dead cell assay on primary bone marrow cells", "format": "cell-based, mouse", "conditions": "treated in vitro at different doses", "protocol": "Live-Dead Cell Assay: Live and dead cells were observed by confocal laser microscopy (Zeiss, Germany) after staining with live/dead staining reagent (Invitrogen, Carlsbad, Calif., USA) as per the manufacturer's instructions. The images were analyzed by Zeiss software.\nBLI imaging followed development of metastatic lesions in bone."}, "[5]": {"conditions": "listed as recombinant MDA-7/IL-24"}}, "note": "Entries after “also recorded” stand apart in the source; their conditions may differ. Like-named read-outs stand apart in the source and are kept apart here."}
{"molecule": "B1", "values": [{"measurement": "proliferation capacity of RWPE-1 (colony formation)", "setting": "[1]", "value": "without affecting the proliferation capacity"}, {"measurement": "Cell proliferation (MTT assay)", "setting": "PC3-ML cells [2]", "value": "significant inhibition in cell proliferation"}, {"measurement": "Cell proliferation (MTT assay)", "setting": "PC3-ML cells [2]; listed as MDA-7/IL-24", "value": "significantly impaired"}, {"measurement": "proliferation of PC cells (colony formation)", "setting": "PC cells", "value": "significantly reduced the proliferation of PC cells"}, {"measurement": "bone metastasis (BLI signal / luciferase intensity)", "setting": "PC3-ML cells [3]", "value": "significantly fewer metastatic lesions"}, {"measurement": "bone metastasis (BLI signal / luciferase intensity)", "setting": "PC3-ML cells [3]; listed as MDA-7/IL-24", "value": "significantly less evidence of metastasis; also recorded: a significant decrease in metastasis; also recorded: significant inhibition in luciferase intensity"}, {"measurement": "bone metastasis (BLI signal / luciferase intensity)", "setting": "PC3-ML cells [3]; [5]", "value": "significantly less metastatic lesions in their femurs; also recorded: significantly reduced the occurrence of bone metastasis"}, {"measurement": "survival", "setting": "PC3-ML cells [3]", "value": "enhancement of survival"}, {"measurement": "survival", "setting": "PC3-ML cells [3]; listed as MDA-7/IL-24", "value": "increased"}, {"measurement": "toxicity in animals", "setting": "PC3-ML cells [3]", "value": "non-toxic"}, {"measurement": "toxicity in animals", "setting": "PC3-ML cells [3]; [5]", "value": "without promoting toxicity"}, {"measurement": "development of lung metastases", "setting": "PC3-ML cells [3]; six doses of MDA-7/IL-24 protein 5 mg/kg", "value": "suppressed development of lung metastases"}, {"measurement": "number of osteoclasts from bone marrow of treated animals", "setting": "bone marrow cells", "value": "significantly fewer osteoclasts"}, {"measurement": "osteoclastic activity of bone marrow from treated animals", "setting": "bone marrow cells", "value": "less osteoclastic activity"}, {"measurement": "levels of p27, GRP78, and Beclin-1", "setting": "p27, GRP78, and Beclin-1", "value": "Significant increases; also recorded: up-regulation of expression"}, {"measurement": "toxicity in primary bone marrow cells", "setting": "[4]; listed as His-MDA-7", "value": "No apparent toxicity"}, {"measurement": "toxicity in primary bone marrow cells", "setting": "[4]; listed as MDA-7/IL-24", "value": "no effect"}]}
